Test results from patent US20030211466.
Read-outs that look alike come from different tables or passages of the source.

System: HuB (Hel-N2, ELAV-like), Q12926-2
Conditions: increase in HuB RNP on differentiation

Chain of HuB (Hel-N2, ELAV-like), Q12926-2 (Q12926 other isoform, or with tags, fused parts or gaps): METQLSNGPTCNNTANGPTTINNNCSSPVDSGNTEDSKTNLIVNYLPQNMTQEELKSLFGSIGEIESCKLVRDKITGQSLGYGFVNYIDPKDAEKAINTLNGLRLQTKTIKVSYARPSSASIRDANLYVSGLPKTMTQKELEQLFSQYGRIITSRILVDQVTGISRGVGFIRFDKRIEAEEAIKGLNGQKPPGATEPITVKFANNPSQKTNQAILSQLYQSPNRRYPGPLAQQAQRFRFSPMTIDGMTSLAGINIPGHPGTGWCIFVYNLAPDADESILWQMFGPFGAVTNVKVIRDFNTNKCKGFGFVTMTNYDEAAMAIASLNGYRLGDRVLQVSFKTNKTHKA

Substance: CACN (calcium channel beta 3) mRNA
- binding signal (total RNA +1.31): 14.5 fold

Substance: CELSR mRNA
- binding signal (total RNA -1.33): 9.41 fold

Substance: MBNL mRNA
- binding signal (total RNA +1.42): 8.95 fold
